Values quoted from earlier work in article PMC10287730.
pKd: −log10 of the molar value.

Target: TLR4 (Homo sapiens) (UniProt O00206)
Sequence (O00206 24-839): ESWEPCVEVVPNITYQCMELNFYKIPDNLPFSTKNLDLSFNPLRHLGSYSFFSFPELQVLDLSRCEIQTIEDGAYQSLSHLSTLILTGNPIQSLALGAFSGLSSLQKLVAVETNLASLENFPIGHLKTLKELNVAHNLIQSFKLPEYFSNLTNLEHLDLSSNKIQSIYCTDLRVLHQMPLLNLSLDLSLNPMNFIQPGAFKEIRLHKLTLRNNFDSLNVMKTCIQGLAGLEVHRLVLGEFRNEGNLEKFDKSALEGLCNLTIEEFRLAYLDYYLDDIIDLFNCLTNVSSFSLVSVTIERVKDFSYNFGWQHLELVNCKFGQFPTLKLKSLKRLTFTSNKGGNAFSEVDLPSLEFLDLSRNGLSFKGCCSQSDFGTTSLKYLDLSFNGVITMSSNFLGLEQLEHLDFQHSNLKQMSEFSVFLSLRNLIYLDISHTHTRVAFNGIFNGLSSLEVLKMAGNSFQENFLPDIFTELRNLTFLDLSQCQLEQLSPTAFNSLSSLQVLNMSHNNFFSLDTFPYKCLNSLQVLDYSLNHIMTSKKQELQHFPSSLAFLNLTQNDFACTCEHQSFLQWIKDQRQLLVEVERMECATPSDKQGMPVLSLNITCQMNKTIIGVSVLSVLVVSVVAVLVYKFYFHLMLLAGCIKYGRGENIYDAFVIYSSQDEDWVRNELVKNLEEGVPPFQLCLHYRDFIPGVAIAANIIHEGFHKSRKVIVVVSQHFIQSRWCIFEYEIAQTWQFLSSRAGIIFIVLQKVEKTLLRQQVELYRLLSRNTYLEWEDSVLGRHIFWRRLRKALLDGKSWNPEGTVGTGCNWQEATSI

Sequence of Galectin-3 (P17931 2-250): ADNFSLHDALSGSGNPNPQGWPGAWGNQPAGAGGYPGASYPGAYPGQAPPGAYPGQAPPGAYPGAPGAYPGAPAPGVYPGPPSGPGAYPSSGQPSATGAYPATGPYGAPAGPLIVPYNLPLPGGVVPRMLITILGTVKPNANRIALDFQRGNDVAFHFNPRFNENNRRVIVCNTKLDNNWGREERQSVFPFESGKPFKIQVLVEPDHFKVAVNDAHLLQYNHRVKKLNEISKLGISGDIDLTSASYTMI

**Q.** With Galectin-3 (from UniProt P17931) as the substance, how does the pKd read?
**A.** The pKd was 6.00.
